The source of these data is patent US20040180380A1.

As usually defined, the IC50 is the concentration that inhibits the measured activity by half. A higher IC50 goes with weaker potency.

Assay [1] has as its target antibody C1. Put plainly: peptide competition ELISA; free peptide competes with coated target peptide for C1.
Assay [2] deals with antibody C1. Kind of assay: peptide competition ELISA; competitor for C1. (In an ELISA, binding on a coated surface is turned into a signal by an enzyme label.)
In assay [3] the target is antibody C1. Kind of assay: peptide competition ELISA; reference YEVQGEVF
Assay [4] has as its target antibody P1. Put plainly: peptide competition ELISA; competitor for P1.
Assay [5] deals with antibody P1. Kind of assay: peptide competition ELISA; reference EPAELTDA

A value given as a limit tells only on which side of the number the result lay.

Turning to YEVQGEVF [CRP-derived 8-mer PET sequence YEVQGEVF], the IC50 in assay [1] worked out at 1 µM.
Turning to VEVNGEVF [nearest-neighbor 8-mer VEVNGEVF], the IC50 in assay [2] is above 1000 µM. The molecule also had a fold higher concentration (ineffective) than the antigen PET's half-maximum in assay [3] above 1000 fold.
With DPTQLTDA [nearest-neighbor 8-mer DPTQLTDA], the 50% inhibitory concentration (IC50) in assay [4] is above 1000 µM. This molecule also had a fold higher concentration (ineffective) than the antigen PET's half-maximum in assay [5] of 25000 fold.
YEVLGEEF [nearest-neighbor 8-mer YEVLGEEF] gave an IC50 in assay [2] above 1000 µM. In assay [3], this molecule returned a fold higher concentration (ineffective) than the antigen PET's half-maximum above 1000 fold.
The molecule EPVELTSA [nearest-neighbor 8-mer EPVELTSA] had a half-inhibitory concentration (IC50) in assay [4] above 1000 µM. The fold higher concentration (ineffective) than the antigen PET's half-maximum in assay [5] is 25000 fold.
